Assay results: US20250011363A1, “OPTIMIZED SHORTENED PEPTIDE THAT BINDS TO ACETYLCHOLINE RECEPTOR, AND USE THEREOF” (SKINMED CO., LTD., priority 2021, published 2025)

Molecular target: acetylcholine receptor (Homo sapiens, UniProt P02708)
Test: SPR binding affinity (RU) of optimized 5mer/6mer/7mer peptides, Examples 6-7
Settings: 6mer-1 Top sequence; SPR; peptides tested at 10 μM
Procedure: Based on the frequencies of occurrence of the top 7 amino acids from Table 7 in Example 5, 600 peptides comprising these amino acids (top combinations) and those comprising the 13 less frequently occurring amino acids (bottom combinations) were synthesized for each series of 5mer, 6mer-1, and 6mer-2. The binding affinity of each sequence for the acetylcholine receptor was measured using Surface Plasmon Resonance (SPR) analysis method. The peptides were tested at a concentration of 10 μM. Additionally, the average binding affinities of the top and bottom combinations in each series are depicted in FIGS. 5-7.
Representative peptides identified in Example 6, two in each library, including 5mers (73, 311) and 6mers-1 (43, 210) and 6mers-2 (136, 233), were compared with the pre-optimized 6mer, 5mer-ND, and Synake.

Sequence of acetylcholine receptor (P02708 21-457): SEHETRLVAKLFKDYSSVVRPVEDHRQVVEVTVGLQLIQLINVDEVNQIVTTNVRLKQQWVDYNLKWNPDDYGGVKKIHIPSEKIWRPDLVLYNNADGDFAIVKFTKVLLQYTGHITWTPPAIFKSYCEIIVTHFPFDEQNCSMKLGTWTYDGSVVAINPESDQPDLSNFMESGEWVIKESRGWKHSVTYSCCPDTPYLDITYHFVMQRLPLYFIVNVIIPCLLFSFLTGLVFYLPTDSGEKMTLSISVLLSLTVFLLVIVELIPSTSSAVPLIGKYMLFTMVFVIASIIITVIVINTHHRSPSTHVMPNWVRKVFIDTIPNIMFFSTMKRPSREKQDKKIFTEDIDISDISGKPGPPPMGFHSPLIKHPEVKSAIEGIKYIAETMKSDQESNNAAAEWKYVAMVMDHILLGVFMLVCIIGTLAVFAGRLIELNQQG

Going from 6mer-1-332 (KKRVQK) to 6mer-1-293 (RKRVCK), the Binding affinity rises from 122 Ru to 154 Ru.

Compared with 6mer-1-214 (RRSYCK), 6mer-1-240 (RRSRRR) is higher in Binding affinity: 139 Ru for the first, 148 Ru for the second.

First: 6mer-1-390 (RKLQQR)
Second: 6mer-1-357 (KRRQTR)
The Binding affinity of the first is lower: 121 Ru for the first, 148 Ru for the second.

Same assay, conditions: 6mer-2 Top sequence; SPR; peptides tested at 10 μM

Compared with 6mer-2-2 (RWYLKR), 6mer-2-29 (RSQRKR) is higher in Binding affinity: 139 Ru for the first, 142 Ru for the second.

Compared with 6mer-2-79 (RQLSKR), 6mer-2-173 (RQQCKK) is lower in Binding affinity: 135 Ru for the first, 127 Ru for the second.

First: 6mer-2-150 (KRILKR)
Second: 6mer-2-138 (KQRRRK)
The Binding affinity of the first is lower: 136 Ru for the first, 153 Ru for the second.

Same assay, conditions: SPR, Resonance Units; 5mer Bottom sequence (bottom combinations); peptides tested at 10 μM

Compared with 5mer-636 (KDKGR), 5mer-784 (RACEK) is higher in Binding affinity: 11 Ru for the first, 21 Ru for the second.

Going from 5mer-631 (RPANR) to 5mer-726 (KATMK), the Binding affinity rises from 17 Ru to 33 Ru.

First: 5mer-983 (RTTGR)
Second: 5mer-787 (KDNIR)
The Binding affinity of the first is higher: 23 Ru for the first, 17 Ru for the second.

Compared with 5mer-1014 (RKNKR), 5mer-626 (KICMR) is lower in Binding affinity: 23 Ru for the first, 12 Ru for the second.

First: 5mer-1088 (KAKKK)
Second: 5mer-789 (KFWIR)
The Binding affinity of the first is higher: 16 Ru for the first, 12 Ru for the second.

Going from 5mer-1008 (KDSNR) to 5mer-1035 (KEHVR), the Binding affinity rises from 11 Ru to 19 Ru.

Same assay, conditions: SPR, Resonance Units; peptides tested at 10 μM; 6mer-1 Bottom sequence

6mer-1-1162 (KKCDHR) and 6mer-1-1021 (KKHDIK) are the same in Binding affinity: 41 Ru for the first, 41 Ru for the second.

6mer-1-1173 (KKIPMK) was tested, and the Binding affinity was 26 Ru.

Same assay, conditions: SPR, Resonance Units; peptides tested at 10 μM; 6mer-1 Bottom sequence (Table 11)

First: 6mer-1-775 (KKYPWR)
Second: 6mer-1-693 (RKIDMK)
The Binding affinity of the first is lower: 12 Ru for the first, 22 Ru for the second.

Going from 6mer-1-630 (KRMEPR) to 6mer-1-779 (RRPDAR), the Binding affinity rises from 14 Ru to 30 Ru.

First: 6mer-1-712 (KKPSNK)
Second: 6mer-1-778 (RRDDFR)
The Binding affinity of the first is lower: 24 Ru for the first, 28 Ru for the second.

First: 6mer-1-611 (KKNCHK)
Second: 6mer-1-743 (KKTMVR)
The Binding affinity of the first is higher: 23 Ru for the first, 14 Ru for the second.

Going from 6mer-1-689 (KRCPVR) to 6mer-1-766 (RKCTIR), the Binding affinity rises from 11 Ru to 15 Ru.

Going from 6mer-1-721 (RKAMEK) to 6mer-1-697 (RRPTNR), the Binding affinity falls from 22 Ru to 13 Ru.

Same assay, conditions: SPR, Resonance Units; peptides tested at 10 μM; 6mer-2 Bottom sequence

First: 6mer-2-807 (KIWNRK)
Second: 6mer-2-647 (KTEPKR)
The Binding affinity of the first is higher: 28 Ru for the first, 19 Ru for the second.

Compared with 6mer-2-870 (KMTEKK), 6mer-2-748 (RFDKKR) is higher in Binding affinity: 21 Ru for the first, 28 Ru for the second.

Going from 6mer-2-803 (RNKERK) to 6mer-2-705 (RENFKK), the Binding affinity falls from 18 Ru to 11 Ru.

First: 6mer-2-787 (RIWHKK)
Second: 6mer-2-838 (RCTVRK)
The Binding affinity of the first is higher: 19 Ru for the first, 13 Ru for the second.

Compared with 6mer-2-658 (RYWVKK), 6mer-2-816 (RKMGKR) is lower in Binding affinity: 23 Ru for the first, 15 Ru for the second.

Compared with 6mer-2-735 (KMNAKK), 6mer-2-884 (KMTMKK) is lower in Binding affinity: 21 Ru for the first, 11 Ru for the second.

Same assay, conditions: SPR, Resonance Units; peptides tested at 10 μM; 6mer-2 Top sequence

Compared with 6mer-2-451 (RGRCKK), 6mer-2-559 (KGQLRR) is lower in Binding affinity: 148 Ru for the first, 121 Ru for the second.

Compared with 6mer-2-434 (RVIRRK), 6mer-2-495 (KLLCKK) is lower in Binding affinity: 154 Ru for the first, 121 Ru for the second.

For 6mer-2-446 (RQLQKK), the Binding affinity was 153 Ru.

Same assay, conditions: SPR, Resonance Units; peptides tested at 10 μM; 6mer-2 Top sequence (Table 12)

Going from 6mer-2-387 (KWLCKK) to 6mer-2-275 (KLITRR), the Binding affinity falls from 146 Ru to 135 Ru.

Compared with 6mer-2-328 (KRYQRK), 6mer-2-303 (KVFTKR) is lower in Binding affinity: 131 Ru for the first, 126 Ru for the second.

Compared with 6mer-2-216 (KGILKK), 6mer-2-383 (KLVRRK) is higher in Binding affinity: 126 Ru for the first, 128 Ru for the second.

First: 6mer-2-272 (KWRSRK)
Second: 6mer-2-359 (RLFCKK)
The Binding affinity of the first is higher: 154 Ru for the first, 136 Ru for the second.

First: 6mer-2-264 (KSQLKR)
Second: 6mer-2-270 (KSRLRR)
The Binding affinity of the first is lower: 127 Ru for the first, 148 Ru for the second.

With 6mer-2-336 (KLITKR) the Binding affinity was 135 Ru.

Same assay, conditions: SPR, peptides at 10 μM; 6mer-2 Bottom sequence

First: 6mer-2-1158 (RDNIRK)
Second: 6mer-2-1112 (RASWRK)
The Binding affinity of the first is higher: 37 Ru for the first, 26 Ru for the second.

Going from 6mer-2-1198 (RMSHRR) to 6mer-2-1077 (KMTIKK), the Binding affinity rises from 27 Ru to 34 Ru.

6mer-2-1143 (KACIKK) showed a Binding affinity of 42 Ru.

Same assay, conditions: SPR, peptides tested at 10 μM; 5mer Top sequence

Compared with 5mer-429 (KSQYK), 5mer-468 (RWQCK) is lower in Binding affinity: 63 Ru for the first, 54 Ru for the second.

Compared with 5mer-72 (KLYRR), 5mer-485 (KRQRK) is higher in Binding affinity: 50 Ru for the first, 58 Ru for the second.

First: 5mer-155 (KRYLR)
Second: 5mer-31 (RRLQR)
The Binding affinity of the first is lower: 57 Ru for the first, 65 Ru for the second.

Compared with 5mer-156 (KGLRK), 5mer-92 (RVRLK) is lower in Binding affinity: 85 Ru for the first, 62 Ru for the second.

Compared with 5mer-403 (RRLYK), 5mer-51 (RSLQR) is higher in Binding affinity: 64 Ru for the first, 70 Ru for the second.

First: 5mer-463 (KWYTK)
Second: 5mer-384 (KSLRK)
The Binding affinity of the first is lower: 52 Ru for the first, 75 Ru for the second.

First: 5mer-60 (RLFTK)
Second: 5mer-304 (RSVRK)
The Binding affinity of the first is higher: 86 Ru for the first, 76 Ru for the second.

Same assay, conditions: SPR, peptides tested at 10 μM; 5mer Top sequence (top combinations)

Compared with 5mer-260 (KVYRR), 5mer-241 (KVRCR) is lower in Binding affinity: 57 Ru for the first, 51 Ru for the second.

First: 5mer-544 (RLQLR)
Second: 5mer-537 (RLRLR)
The Binding affinity of the first is higher: 63 Ru for the first, 59 Ru for the second.

Compared with 5mer-599 (KWVSR), 5mer-530 (RWRRR) is higher in Binding affinity: 61 Ru for the first, 80 Ru for the second.

Going from 5mer-227 (RRQQR) to 5mer-532 (KQICK), the Binding affinity falls from 84 Ru to 75 Ru.

Going from 5mer-513 (RWYYK) to 5mer-276 (RSLRR), the Binding affinity falls from 83 Ru to 70 Ru.

Same assay, conditions: SPR, peptides tested at 10 μM; 6mer-1 Bottom sequence (Table 11)

Compared with 6mer-1-850 (RRNPEK), 6mer-1-877 (KKPEWR) is lower in Binding affinity: 29 Ru for the first, 19 Ru for the second.

First: 6mer-1-873 (KRIWAR)
Second: 6mer-1-827 (RKKKFR)
The Binding affinity of the first is lower: 23 Ru for the first, 30 Ru for the second.

First: 6mer-1-836 (RRCMIK)
Second: 6mer-1-919 (RKDHIK)
The Binding affinity of the first is lower: 22 Ru for the first, 26 Ru for the second.

Going from 6mer-1-941 (RKTPKK) to 6mer-1-842 (RRFANK), the Binding affinity falls from 29 Ru to 11 Ru.

First: 6mer-1-940 (RKPEDR)
Second: 6mer-1-972 (RRHTHK)
The Binding affinity of the first is lower: 29 Ru for the first, 43 Ru for the second.

Same assay, conditions: SPR, peptides tested at 10 μM; 6mer-1 Top sequence

Compared with 6mer-1-546 (RKLVQR), 6mer-1-487 (RKGRRK) is lower in Binding affinity: 123 Ru for the first, 121 Ru for the second.

First: 6mer-1-476 (KRRRQK)
Second: 6mer-1-480 (KKQFYK)
The Binding affinity of the first is higher: 154 Ru for the first, 121 Ru for the second.

First: 6mer-1-499 (RKLFYR)
Second: 6mer-1-431 (RRRFRR)
The Binding affinity of the first is higher: 149 Ru for the first, 144 Ru for the second.

Same assay, conditions: SPR, peptides tested at 10 μM; 6mer-1 Top sequence (top combinations)

Compared with 6mer-1-34 (RKWLYK), 6mer-1-83 (RRSFLR) is higher in Binding affinity: 135 Ru for the first, 146 Ru for the second.

Going from 6mer-1-4 (RKSFYK) to 6mer-1-103 (RKRICK), the Binding affinity falls from 139 Ru to 122 Ru.

Same assay, conditions: SPR; peptides tested at 10 μM; 5mer Bottom sequence

First: 5mer-1127 (RIADR)
Second: 5mer-1128 (REWVR)
The Binding affinity of the first is lower: 16 Ru for the first, 26 Ru for the second.

Going from 5mer-1199 (KNNNR) to 5mer-861 (KTKIR), the Binding affinity falls from 29 Ru to 20 Ru.

Substance 5mer-848 (RYMVK) has a Binding affinity of 12 Ru.
